# Assay results from patent publication US20150074844A1 (PURDUE RESEARCH FOUNDATION, published 2015).
# T1: PYL13-nLUC (Arabidopsis thaliana, UniProt Q9SN51 1-164)
# T1 construct: LUC complementation assay in protoplasts; also called PYL13 fused to the N-terminal domain of LUC; not shown: N-terminal domain of firefly luciferase
# T1 sequence: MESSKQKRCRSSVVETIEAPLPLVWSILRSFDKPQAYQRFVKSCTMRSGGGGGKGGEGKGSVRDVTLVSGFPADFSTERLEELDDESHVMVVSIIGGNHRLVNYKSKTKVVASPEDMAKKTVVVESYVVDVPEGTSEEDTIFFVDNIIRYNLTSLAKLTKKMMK
# T2: PYL8-nLUC (Arabidopsis thaliana, UniProt Q9FGM1 1-188)
# T2 construct: LUC complementation assay in protoplasts; also called PYLs-nLUC; not shown: N-terminal domain of firefly luciferase
# T2 sequence: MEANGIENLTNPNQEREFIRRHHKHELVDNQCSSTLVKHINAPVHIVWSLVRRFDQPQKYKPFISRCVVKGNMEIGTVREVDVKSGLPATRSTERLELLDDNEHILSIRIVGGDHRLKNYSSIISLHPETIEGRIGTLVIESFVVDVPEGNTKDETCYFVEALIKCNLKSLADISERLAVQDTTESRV
# T3: PYL6-nLUC (Arabidopsis thaliana, UniProt Q8S8E3 1-215)
# T3 construct: LUC complementation assay in protoplasts; also called PYLs-nLUC; not shown: N-terminal domain of firefly luciferase
# T3 sequence: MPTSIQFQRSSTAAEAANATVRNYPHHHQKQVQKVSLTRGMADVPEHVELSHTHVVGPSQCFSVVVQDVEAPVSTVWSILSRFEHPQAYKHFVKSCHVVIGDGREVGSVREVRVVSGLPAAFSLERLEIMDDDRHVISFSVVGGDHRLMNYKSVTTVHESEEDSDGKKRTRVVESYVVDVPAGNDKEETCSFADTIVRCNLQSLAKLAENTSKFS
# T4: PYR1-nLUC (Arabidopsis thaliana, UniProt O49686 1-191)
# T4 construct: LUC complementation assay in protoplasts; also called PYLs-nLUC; not shown: N-terminal domain of firefly luciferase
# T4 sequence: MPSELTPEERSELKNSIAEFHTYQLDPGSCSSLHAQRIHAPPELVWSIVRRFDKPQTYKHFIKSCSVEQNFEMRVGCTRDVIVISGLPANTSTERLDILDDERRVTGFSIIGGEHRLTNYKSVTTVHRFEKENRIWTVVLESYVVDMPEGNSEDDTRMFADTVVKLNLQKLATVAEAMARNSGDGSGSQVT
# T5: PYL7-nLUC (Arabidopsis thaliana, UniProt Q1ECF1 1-211)
# T5 construct: LUC complementation assay in protoplasts; also called PYLs-nLUC; not shown: N-terminal domain of firefly luciferase
# T5 sequence: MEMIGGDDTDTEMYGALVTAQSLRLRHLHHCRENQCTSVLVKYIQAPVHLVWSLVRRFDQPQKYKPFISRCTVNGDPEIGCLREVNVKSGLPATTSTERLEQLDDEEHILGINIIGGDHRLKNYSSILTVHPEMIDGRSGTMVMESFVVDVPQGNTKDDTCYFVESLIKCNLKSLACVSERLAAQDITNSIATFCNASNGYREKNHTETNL
# T6: PYL10-nLUC (Arabidopsis thaliana, UniProt Q8H1R0 1-183)
# T6 construct: LUC complementation assay in protoplasts; also called PYLs-nLUC; not shown: N-terminal domain of firefly luciferase
# T6 sequence: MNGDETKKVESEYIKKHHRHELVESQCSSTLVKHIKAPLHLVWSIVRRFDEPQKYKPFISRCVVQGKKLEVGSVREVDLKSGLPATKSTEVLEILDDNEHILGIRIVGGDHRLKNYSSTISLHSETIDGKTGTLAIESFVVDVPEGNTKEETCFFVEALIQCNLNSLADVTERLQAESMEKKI
# T7: PYL3-nLUC (Arabidopsis thaliana, UniProt Q9SSM7 1-209)
# T7 construct: LUC complementation assay in protoplasts; also called PYLs-nLUC; not shown: N-terminal domain of firefly luciferase
# T7 sequence: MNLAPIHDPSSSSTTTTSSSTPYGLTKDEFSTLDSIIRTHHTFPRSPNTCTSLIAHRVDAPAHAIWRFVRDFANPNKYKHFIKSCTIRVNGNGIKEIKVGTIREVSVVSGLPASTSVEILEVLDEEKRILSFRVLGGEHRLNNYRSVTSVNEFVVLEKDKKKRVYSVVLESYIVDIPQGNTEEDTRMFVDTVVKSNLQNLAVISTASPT
# T8: PYL5-nLUC (Arabidopsis thaliana, UniProt Q9FLB1 1-203)
# T8 construct: LUC complementation assay in protoplasts; also called PYLs-nLUC; not shown: N-terminal domain of firefly luciferase
# T8 sequence: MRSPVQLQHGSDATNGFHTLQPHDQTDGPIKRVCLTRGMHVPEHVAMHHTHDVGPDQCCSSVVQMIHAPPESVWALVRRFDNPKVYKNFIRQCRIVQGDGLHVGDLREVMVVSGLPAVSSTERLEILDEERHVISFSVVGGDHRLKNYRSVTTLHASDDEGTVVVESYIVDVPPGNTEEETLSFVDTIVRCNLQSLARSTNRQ
# T9: PYL4-nLUC (Arabidopsis thaliana, UniProt O80920 1-207)
# T9 construct: LUC complementation assay in protoplasts; also called PYLs-nLUC; not shown: N-terminal domain of firefly luciferase
# T9 sequence: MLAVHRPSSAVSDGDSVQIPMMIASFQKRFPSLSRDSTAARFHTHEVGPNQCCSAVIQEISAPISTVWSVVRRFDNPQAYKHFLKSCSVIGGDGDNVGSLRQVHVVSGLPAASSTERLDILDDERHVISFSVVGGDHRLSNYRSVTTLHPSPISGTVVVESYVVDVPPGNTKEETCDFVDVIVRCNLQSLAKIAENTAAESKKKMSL
# T10: HAI2 fused to the GAL4-activating domain (AD) (Arabidopsis, UniProt Q9LNW3 1-442)
# T10 construct: Yeast two-hybrid construct
# T10 sequence (looked up): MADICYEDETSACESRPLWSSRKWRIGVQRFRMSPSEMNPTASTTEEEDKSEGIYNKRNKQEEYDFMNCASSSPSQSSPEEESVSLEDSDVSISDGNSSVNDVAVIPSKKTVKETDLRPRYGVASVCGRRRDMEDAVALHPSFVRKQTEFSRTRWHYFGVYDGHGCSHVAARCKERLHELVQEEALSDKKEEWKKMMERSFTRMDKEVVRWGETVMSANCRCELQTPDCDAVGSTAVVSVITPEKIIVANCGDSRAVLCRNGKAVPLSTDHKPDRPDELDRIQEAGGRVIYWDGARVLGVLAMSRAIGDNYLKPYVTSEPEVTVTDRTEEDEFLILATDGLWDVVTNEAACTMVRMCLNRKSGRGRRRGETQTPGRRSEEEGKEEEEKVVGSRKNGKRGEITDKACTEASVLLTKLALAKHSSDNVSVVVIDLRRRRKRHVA
# Tests used:
# [1] = molecular target: T1, PYL13-nLUC; test: firefly luciferase complementation in protoplasts (weaker group; PYL13 with itself)
# Protocol: (§1) To further characterize the interactions between PYL13 and PYLs in vivo, their interactions in protoplasts were examined by the firefly luciferase (LUC) complementation assay. PYL13 was fused to the C-terminal domain of LUC (PYL13-cLUC), and PYLs were fused to the N-terminal domain of LUC (PYLs-nLUC), and co-expressed in protoplasts. After transfection, protoplasts were incubated overnight under light at room temperature, and the LUC activities in living protoplasts were measured. Error bars indicate s.e.m. (n=6). […] PYL13 binds more strongly to PYR1, PYL1-5, PYL7, and PYL10-11 than to PYL6, PYL8-9, or PYL13 (FIG. 5B).
# [2] = molecular target: T2, PYL8-nLUC; test: firefly luciferase complementation in protoplasts (weaker group)
# Protocol: as §1
# [3] = molecular target: T3, PYL6-nLUC; test: as above
# Protocol: as §1
# [4] = molecular target: T4, PYR1-nLUC; test: firefly luciferase complementation in protoplasts (stronger group)
# Protocol: as §1
# [5] = molecular target: T5, PYL7-nLUC; test: as above
# Protocol: as §1
# [6] = molecular target: T6, PYL10-nLUC; test: as above
# Protocol: as §1
# [7] = molecular target: T7, PYL3-nLUC; test: as above
# Protocol: as §1
# [8] = molecular target: T8, PYL5-nLUC; test: as above
# Protocol: as §1
# [9] = molecular target: T9, PYL4-nLUC; test: as above
# Protocol: as §1
# [10] = molecular target: T10, HAI2 fused to the GAL4-activating …; test: yeast two-hybrid, growth on media lacking His and His/Ade, with and without ABA (ABA-independent)
# Protocol: To investigate how PYL13 may function in plants, the interaction between PYL13 and clade A PP2Cs in yeast two-hybrid assays was examined, as shown in FIG. 3. […] PYL13 binds strongly with ABI1, ABI2, PP2CA, and HAI2 but weakly with HAB1 and HAI1 (FIG. 3A). […] PYL13 fused to the GAL4-DNA-binding domain (BD) was used as […]. Interaction was determined by growth assay on media lacking His and His/Ade in the presence and absence of ABA. Dilutions (10⁻¹, 10⁻², and 10⁻³) of saturated cultures were spotted onto the plates, which were photographed after 5 days.
binding result [1],binding result [2],binding result [3],binding result [4],binding result [5],binding result [6],binding result [7],binding result [8],binding result [9],binding result [10],Binder
binds,binds,binds,binds,binds,binds,binds,binds,binds,,"PYL13-cLUC (other, LUC complementation assay in protoplasts; also called PYL13 fused to the C-terminal domain of LUC; not shown: C-terminal domain of firefly luciferase) MESSKQKRCRSSVVETIEAPLPLVWSILRSFDKPQAYQRFVKSCTMRSGGGGGKGGEGKGSVRDVTLVSGFPADFSTERLEELDDESHVMVVSIIGGNHRLVNYKSKTKVVASPEDMAKKTVVVESYVVDVPEGTSEEDTIFFVDNIIRYNLTSLAKLTKKMMK"
,,,,,,,,,binds,"PYL13 fused to the GAL4-DNA-binding domain (BD) (other, not shown: small tags and cut ends, also called BD-PYL13) MESSKQKRCRSSVVETIEAPLPLVWSILRSFDKPQAYQRFVKSCTMRSGGGGGKGGEGKGSVRDVTLVSGFPADFSTERLEELDDESHVMVVSIIGGNHRLVNYKSKTKVVASPEDMAKKTVVVESYVVDVPEGTSEEDTIFFVDNIIRYNLTSLAKLTKKMMK"
